Laboratory results published in the Immune Epitope Database (IEDB).

Experiments:
Assay in all cases: IEDB peptide-MHC binding, purified MHC/competitive/radioactivity; filed as Kd, often an IC50 or EC50 that approximates it; ≥ and ≤ were set here for values at or beyond the usual limits of such assays
[1] = target: HLA-A*02:03
[2] = target: HLA-A*02:06
[3] = target: HLA-A*02:02
[4] = target: HLA-A*31:01; settings: source organism: Vaccinia virus WR
[5] = target: HLA-A*68:01; settings: source organism: Vaccinia virus WR
[6] = target: HLA-A*11:01; settings: source organism: Vaccinia virus WR
[7] = target: HLA-A*33:01; settings: source organism: Vaccinia virus WR
[8] = target: HLA-A*03:01; settings: source organism: Vaccinia virus WR
[9] = source organism: Dengue virus 4 Philippines/H241/1956
[10] = source organism: SARS coronavirus Tor2
[11] = source organism: Vaccinia virus WR
[12] = source organism: Dengue virus 1 Brazil/97-11/1997
[13] = source organism: Dengue virus 3 Martinique/1243/1999

Sequence: YLSSRAKLA
- Kd [1, 9]: 36 nM

Sequence: AIAACAMLLV
- Kd [2, 10]: 77.8 nM
- Kd [1, 10]: 31.6 nM
- Kd [3, 10]: 5.9 nM

Sequence: NITTLLNETA
- Kd [2, 11]: 1130 nM
- Kd [1, 11]: 106 nM
- Kd [3, 11]: 218 nM

Sequence: MMVILPDKI
- Kd [2, 11]: 909 nM
- Kd [1, 11]: 16.3 nM
- Kd [3, 11]: 69.2 nM

Sequence: DVDIPTFNSL
- Kd [2, 11]: 9710 nM
- Kd [1, 11]: 1030 nM
- Kd [3, 11]: 1810 nM

Sequence: IMSIGFEARI
- Kd [2, 11]: 1600 nM
- Kd [1, 11]: 1500 nM
- Kd [3, 11]: 703 nM

Sequence: GIYNCCESNI
- Kd [2, 11]: 290 nM
- Kd [1, 11]: 140 nM
- Kd [3, 11]: 68.3 nM

Sequence: YLVQQESSFV
- Kd [2, 10]: 386 nM
- Kd [1, 10]: 17.5 nM
- Kd [3, 10]: 12700 nM

Sequence: LMSDNPKAST
- Kd [2, 11]: ≥ 47700 nM
- Kd [1, 11]: 938 nM
- Kd [3, 11]: 8880 nM

Sequence: VMHINSPFKV
- Kd [2, 11]: 393 nM
- Kd [1, 11]: 2.51 nM
- Kd [3, 11]: 60.3 nM

Sequence: SVSGDLILEI
- Kd [2, 12]: 89.1 nM

Sequence: TAIRAGYSI
- Kd [2, 11]: 7690 nM
- Kd [1, 11]: 9200 nM
- Kd [3, 11]: 14500 nM

Sequence: RLATAIAGA
- Kd [1, 13]: 11.5 nM

Sequence: FMAYMIGQT
- Kd [1, 9]: 6.07 nM

Sequence: FANVISKIYT
- Kd [2, 11]: 1660 nM
- Kd [1, 11]: 5310 nM
- Kd [3, 11]: 7790 nM

Sequence: IMSMMNITRL
- Kd [2, 11]: 585 nM
- Kd [1, 11]: 106 nM
- Kd [3, 11]: 61.8 nM

Sequence: YIMRVMANNV
- Kd [2, 11]: 14.2 nM
- Kd [1, 11]: 1.96 nM
- Kd [3, 11]: 23 nM

Sequence: FQFICNLLLL
- Kd [2, 10]: 0.87 nM
- Kd [1, 10]: 62 nM
- Kd [3, 10]: 7.94 nM

Sequence: RVNHAKYMVT
- Kd [2, 11]: 9330 nM
- Kd [1, 11]: 1050 nM
- Kd [3, 11]: ≥ 33600 nM

Sequence: NIVTDLENRL
- Kd [2, 11]: 1550 nM
- Kd [1, 11]: 17600 nM
- Kd [3, 11]: 261 nM

Sequence: KTPVIVVPVI
- Kd [2, 11]: 1890 nM
- Kd [1, 11]: 6200 nM
- Kd [3, 11]: 9090 nM

Sequence: RVNDLNRMPT
- Kd [2, 11]: 7720 nM
- Kd [1, 11]: 1440 nM
- Kd [3, 11]: 1360 nM

Sequence: LIQYRQQLEL
- Kd [2, 11]: ≥ 52600 nM
- Kd [1, 11]: 19500 nM
- Kd [3, 11]: ≥ 32800 nM

Sequence: STTDAEACY
- Kd [4]: ≥ 75400 nM
- Kd [5]: 163 nM
- Kd [6]: 432 nM
- Kd [7]: 17400 nM
- Kd [8]: ≥ 47800 nM

Sequence: NITLKIIETY
- Kd [4]: 1210 nM
- Kd [5]: 444 nM
- Kd [6]: 414 nM
- Kd [7]: ≥ 20700 nM
- Kd [8]: ≥ 70100 nM

Sequence: LLLGVGLAMA
- Kd [2, 13]: 3.81 nM
- Kd [1, 13]: 2.33 nM

Sequence: LLKNDVPLA
- Kd [1, 12]: 8.25 nM

Sequence: IVTDLENRLK
- Kd [4]: 548 nM
- Kd [5]: 310 nM
- Kd [6]: 309 nM
- Kd [7]: ≥ 26700 nM
- Kd [8]: 25.4 nM
